Reference: patent publication US20250101087A1 (AbbVie / Abbott, published 2025)
Square brackets hold non-standard residues; d marks the D form. Primed or numbered codes have the meaning given here. Ends that are not written are not given here. pGlu = O=C1CC[C@@H](C(=O)O)N1; Biotin′ = not defined here

T1: Mouse/Rat Aβ 1-40 (mouse/rat)
T1 construct: also called Aβ1-40 from rat and mouse
T1 peptide: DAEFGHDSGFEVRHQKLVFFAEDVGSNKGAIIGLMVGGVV

T2: pE3-16 Pyr-…-Biotin (human)
T2 peptide: [pGlu]FRHDSGYEVHHQK-{Biotin′}

T3: E3-16-EFRHDSGYEVHHQK-Biotin (human)
T3 construct: N-terminal glutamate is not pyroglutamated
T3 peptide: EFRHDSGYEVHHQK-{Biotin′}

T4: pEG6 Pyr …-Biotin (human)
T4 peptide: [pGlu]FRGDSGYEVHHQK-{Biotin′}

T5: pEF10 Pyr …-Biotin (human)
T5 peptide: [pGlu]FRHDSGGEVHHQK-{Biotin′}

T6: pEG8 Pyr …-Biotin (human)
T6 peptide: [pGlu]FRHDGGYEVHHQK-{Biotin′}

T7: pEG7 Pyr …-Biotin (human)
T7 peptide: [pGlu]FRHGSGYEVHHQK-{Biotin′}


How the values were obtained:
[1] = molecular target: T8, amyloid plaques in human AD brain tissue (human, UniProt P05067 674-713); test: immunostaining of unfixed human AD cortex sections, % area covered, 6 donors fitted together
T8 construct: Target presented in tissue sections; also called plaques in AD brain tissue

[2] = molecular target: T8, amyloid plaques in human AD brain tissue; test: immunostaining of unfixed human AD cortex sections with biotinylated antibody, % area covered, 6 donors fitted together
Description: Unfixed, 20 μm tissue sections were prepared from cerebral cortex of human cadaver AD brain using a cryostat and were thaw-mounted onto glass slides. The tissue sections were then incubated in Tris-buffered saline (TBS) containing 0.3% H₂O₂ for 10 minutes. After three washes with TBS, the sections were incubated in TBS containing 3% milk for 30 minutes. […] After three washes with TBS, the immunoreactivity was visualized by incubation in 1:400 ABC Elite for one hour followed by DAB for five minutes.
The images were acquired from all the samples using a slide scanner. […] Using the software, the gray matter was outlined, and the “threshold” was determined by an observer who was blind to the staining conditions. The threshold was set so that the DAB signal was recognized by the software and the background/non-specific staining was excluded from the analysis. Once an appropriate threshold was set, the software measured the percentage of the area of interest containing the positive signal.
A nonlinear regression analysis was carried out using Prism Version 9.1.0 (Graph Pad Software). A variable slope model, 9% area covered by IR=Bottom+(X^{HillSlope})*(Top−Bottom)/(X^{HillSlope}+EC₅₀^{HillSlope}), was used, where Bottom was fixed to zero, and Top was fixed to 10% as the typical total area covered by plaques. Data for all six donors were analyzed in a combined data fit.

human Aβ 1-40 fibrils = human Aβ 1-40 fibrils (human); test: direct binding ELISA
Mouse/Rat Aβ 1-40 = molecular target: T1, Mouse/Rat Aβ 1-40; test: direct binding ELISA
pE3-16 Pyr-…-Biotin = molecular target: T2, pE3-16 Pyr-…-Biotin; test: direct binding ELISA, peptide coated 100 ng/well, average ± SD of three experiments
Description: (§1) Recombinant human Aβ biotinylated peptides were diluted in distilled water. Aβ peptides were diluted to a working concentration of 2 μg/mL, and 50 μL per well (100 ng/well) was added to 96-well half area high-binding ELISA plates. The plates were incubated overnight at 4° C. shaking at 100 rpm. Following coating, the plates were washed four times with 190 µL/well of 1×PBS using an automated plate washer. The plates were blocked with 190 µL/well of 2% BSA in DPBS and incubated for 1 hr. at RT. Reagents for ELISA were diluted in 0.25% BSA in DPBS.
(§2) After incubation for blocking, plates were washed four times with 190 μL/well of 1×PBS using automated plate washer. […] The plates were incubated for 30 min at RT. After four washes with PBS, 50 μL of TMB substrate was added into each well, and the plates were incubated at RT for about 5-10 min until color developed. The reaction was stopped by adding 50 μL per well of 2N sulfuric acid. Plates were read on a ClarioStar plate reader to obtain the absorbance at 450 nm (OD₄₅₀). […] Three independent experiments were performed.

[3] = molecular target: T3, E3-16-EFRHDSGYEVHHQK-Biotin; test: as above
Description: as §1, §2

pEG6 Pyr …-Biotin = molecular target: T4, pEG6 Pyr …-Biotin; test: as above
Description: as §1, §2

pEF10 Pyr …-Biotin = molecular target: T5, pEF10 Pyr …-Biotin; test: as above
Description: as §1, §2

pEG8 Pyr …-Biotin = molecular target: T6, pEG8 Pyr …-Biotin; test: as above
Description: as §1, §2

pEG7 Pyr …-Biotin = molecular target: T7, pEG7 Pyr …-Biotin; test: as above
Description: as §1, §2

T8 sequence (P05067 674-713): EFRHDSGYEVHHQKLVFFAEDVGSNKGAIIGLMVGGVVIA

Binder | EC50 [1] [µg/mL] | EC50 [2] [µg/mL] | binding result (human Aβ 1-40 fibrils) | binding result (Mouse/Rat Aβ 1-40) | EC50 (pE3-16 Pyr-…-Biotin) [nM] | EC50 [3] [nM] | EC50 (pEG6 Pyr …-Biotin) [nM] | EC50 (pEF10 Pyr …-Biotin) [nM] | EC50 (pEG8 Pyr …-Biotin) [nM] | EC50 (pEG7 Pyr …-Biotin) [nM]
Comparator Ab1 (antibody, human IgG1, kappa, V domains shown, Detected with anti-human IgG in the in vivo study; also called comparator antibody Ab1) VH: QVQLVQSGAEVKKPGSSVKVSCKASGYDFTRYYINWVRQAPGQGLEWMGWINPGSGNTKYNEKFKGRVTITADESTSTAYMELSSLRSEDTAVYYCAREGITVYWGQGTTVTVSS VL: DIVMTQTPLSLSVTPGQPASISCKSSQSLLYSRGKTYLNWLLQKPGQSPQLLIYAVSKLDSGVPDRFSGSGSGTDFTLKISRVEAEDVGVYYCVQGTHYPFTFGQGTKLEIKR | 12 |  |  |  |  |  |  |  |  | 
AC-264713, hu Aβ (AC-264713) [hu IgG1/K] (antibody, V domains shown, It is the only humanized antibody described) VH: EVQLQESGPGLVKPSQTLSLTCTFSGFSLSTSGMGVSWIRQPPGKGLEWLAHIYWDDDKRYNPYMKRRLTISKDTSKNQVSLKISSVTAADTAVYYCARRADDYDVGFAYWGQGTLVTVSS VL: DIQMTQSPSSVSASVGDRVTITCLASQTIGTWLAWYQQKPGKSPKLLIYAATSLADGVPSRFSGSGSGTDFTLTISSLQPEDFATYYCQQLYSSPFTFGQGTKLEIKR |  | 0.4 | no binding | no binding | 0.3 | 0.9 | 0.5 | 0.5 | 0.4 | 0.4
